# B1: Tyrosine-protein kinase-interacting protein (Saimiriine herpesvirus 2 (strain 488) (SaHV-2)), P22575 (parent)
# chain: MANEGEEIELTEFPETEKERKDEEKLSSCSEETTNTSSSSGSDHVPVPIEVNVIIQNSSRTEDELQNSKEIELTGFQGKLSSCSEETTAPSSSYSSKQASVFIEENGDNETSTYRPQNVLTNLNSLYTTFEDARAQGKGMVRHKSEDLQSFLEKYPPDFRKPKRDLSATWDPGMPTPPLPPRPANLGERQASTVRLHVKESNCKQPRERKANERNIVKDLKRLENKINVIICLVVVILAVLLLVTVLSILHIGMKS
# Key:
# cd4_human CD4, P01730 = variants of: B1; conditions: with cd4_human CD4, P01730
# lck_human LCK, P06239 = variants of: B1; conditions: with lck_human LCK
# lck_human LCK, P06239, sequence (P06239 whole entry, looked up): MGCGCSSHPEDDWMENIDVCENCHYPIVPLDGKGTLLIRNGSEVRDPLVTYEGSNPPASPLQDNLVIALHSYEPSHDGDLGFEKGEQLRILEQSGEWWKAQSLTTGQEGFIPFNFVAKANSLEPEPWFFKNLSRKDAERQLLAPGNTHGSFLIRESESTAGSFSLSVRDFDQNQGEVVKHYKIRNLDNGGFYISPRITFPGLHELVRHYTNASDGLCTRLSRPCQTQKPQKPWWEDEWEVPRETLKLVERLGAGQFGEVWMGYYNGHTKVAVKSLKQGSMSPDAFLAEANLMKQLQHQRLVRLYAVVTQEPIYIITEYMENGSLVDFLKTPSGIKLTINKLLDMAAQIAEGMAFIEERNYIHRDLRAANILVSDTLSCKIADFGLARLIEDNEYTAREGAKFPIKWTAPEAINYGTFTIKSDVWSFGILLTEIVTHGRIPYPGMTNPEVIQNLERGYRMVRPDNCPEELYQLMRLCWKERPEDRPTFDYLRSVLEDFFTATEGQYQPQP
variant,measurement,setting,value
MANEGEEIELTEFPETEKERKDEEKLSSCSEETTNTSSSSGSDHVPVPIEVNVIIQNSSRTEDELQNSKEIELTGFQGKLSSCSEETTAPSSSYSSKQASVFIEENGDNETSTYRPQNVLTNLNSLYTTFEDARAQGKGMVRHKSEDLQSFLEKYPPDFRKPKRDLSATWDPGMPTPPLAPRPANLGERQASTVRLHVKESNCKQPRERKANERNIVKDLKRLENKINVIICLVVVILAVLLLVTVLSILHIGMKS [P180A],effect of a mutation on the interaction,"cd4_human CD4, P01730",decreasing interaction
same,effect of a mutation on the interaction,"lck_human LCK, P06239",decreasing interaction
MANEGEEIELTEFPETEKERKDEEKLSSCSEETTNTSSSSGSDHVPVPIEVNVIIQNSSRTEDELQNSKEIELTGFQGKLSSCSEETTAPSSSYSSKQASVFIEENGDNETSTYRPQNVLTNLNSLYTTFEDARAQGKGMVRHKSEDLQSFLEKYPPDFRKPKRDLSATWDPGMPTAPLPPRPANLGERQASTVRLHVKESNCKQPRERKANERNIVKDLKRLENKINVIICLVVVILAVLLLVTVLSILHIGMKS [P177A],effect of a mutation on the interaction,"lck_human LCK, P06239",decreasing interaction
MANEGEEIELTEFPETEKERKDEEKLSSCSEETTNTSSSSGSDHVPVPIEVNVIIQNSSRTEDELQNSKEIELTGFQGKLSSCSEETTAPSSSYSSKQASVFIEENGDNETSTYRPQNVLTNLNSLYTTFEDARAQGKGMVRHKSEDLQSFLEKYPPDFRKPKRDLSATWDPGMPTPPLPPRAANLGERQASTVRLHVKESNCKQPRERKANERNIVKDLKRLENKINVIICLVVVILAVLLLVTVLSILHIGMKS [P183A],effect of a mutation on the interaction,"cd4_human CD4, P01730",decreasing interaction
same,effect of a mutation on the interaction,"lck_human LCK, P06239",decreasing interaction
MANEGEEIELTEFPETEKERKDEEKLSSCSEETTNTSSSSGSDHVPVPIEVNVIIQNSSRTEDELQNSKEIELTGFQGKLSSCSEETTAPSSSYSSKQASVFIEENGDNETSTYRPQNVLTNLNSLYTTFEDARAQGKGMVRHKSEDLQSFLEKYPPDFRKPKRDLSATWDPGMPTPALPPRPANLGERQASTVRLHVKESNCKQPRERKANERNIVKDLKRLENKINVIICLVVVILAVLLLVTVLSILHIGMKS [P178A],effect of a mutation on the interaction,"cd4_human CD4, P01730",decreasing interaction
same,effect of a mutation on the interaction,"lck_human LCK, P06239",decreasing interaction
MANEGEEIELTEFPETEKERKDEEKLSSCSEETTNTSSSSGSDHVPVPIEVNVIIQNSSRTEDELQNSKEIELTGFQGKLSSCSEETTAPSSSYSSKQASVFIEENGDNETSTYRPQNVLTNLNSLYTTFEDARAQGKGMVRHKSEDLQSFLEKYPPDFRKPKRDLSATWDPGMATPPLPPRPANLGERQASTVRLHVKESNCKQPRERKANERNIVKDLKRLENKINVIICLVVVILAVLLLVTVLSILHIGMKS [P175A],effect of a mutation on the interaction,"cd4_human CD4, P01730",decreasing interaction
same,effect of a mutation on the interaction,"lck_human LCK, P06239",decreasing interaction

# From IntAct's records for PubMed 17005671
